Experimental data reported in patent US20230357447A1 (JANUX THERAPEUTICS, published 2023).
Ends that are not written are not given here.

Columns and labels:
[1] = molecular target: T1, anti-CD28 scFv (SEQ ID NO: 9); test: competition ELISA: peptide titrated against 2 nM anti-CD28 scFv; binding of the scFv to captured biotinylated CD28 antigen is read; table prints 'IC50 nM' but the axis is Log [Peptide, uM]; no fall of the signal
T1 construct: also called Anti-CD28 scFv (VH-linker 1-VL)

[2] = molecular target: T2, Anti-CD28 scFv (VH-linker 1-VL) (biotinylated (site not stated)); test: phage ELISA, captured biotinylated scFv; background signal 0.071
T2 construct: biotinylated and captured on neutravidin coated plates in the phage ELISA

[3] = molecular target: T2, Anti-CD28 scFv (VH-linker 1-VL); test: phage ELISA, scFv wells pre-incubated with soluble CD28 (competitor); background signal 0.071
[4] = molecular target: T2, Anti-CD28 scFv (VH-linker 1-VL); test: phage ELISA, captured biotinylated scFv; background signal 0.062
[5] = molecular target: T2, Anti-CD28 scFv (VH-linker 1-VL); test: phage ELISA, scFv wells pre-incubated with soluble CD28 (competitor); background signal 0.062
[6] = molecular target: T2, Anti-CD28 scFv (VH-linker 1-VL); test: phage ELISA, captured biotinylated scFv; background signal 0.065
[7] = molecular target: T2, Anti-CD28 scFv (VH-linker 1-VL); test: phage ELISA, scFv wells pre-incubated with soluble CD28 (competitor); background signal 0.065
[8] = molecular target: T3, Ab-12, anti-PD-L1xCD28 non-masked antibody in Vh format; test: competition ELISA: peptide titrated against 5 nM Ab-12; binding of Ab-12 to captured biotinylated CD28 antigen is read; table prints 'IC50 nM' but the axis is Log [Peptide, uM]; no fall of the signal
T3 construct: also called PDL1xCD28 non-masked (Vh)

[9] = molecular target: T3, Ab-12, anti-PD-L1xCD28 non-masked …; test: competition ELISA: peptide titrated against 5 nM Ab-12; binding of Ab-12 to captured biotinylated CD28 antigen is read

## YWYCSPSIVRCVLV (cysteine pairing not given here; also: biotinylated, site not given here, biotinylated when captured on the plate) [Peptide-1]
[1]
  IC50: > 100 nM

## MDWCPMDLWDYCFN [Phage-51]
[2]
  Phage binding ELISA CD28 scFv signal: 1.64
[3]
  Phage binding ELISA CD28 scFv signal in presence of CD28: 0.107

## MDWCPRYLWHECFA [Phage-71]
[2]
  Phage binding ELISA CD28 scFv signal: 2.63
[3]
  Phage binding ELISA CD28 scFv signal in presence of CD28: 0.429

## MDWCPRFLWSECFN [Phage-95]
[4]
  Phage binding ELISA CD28 scFv signal: 2.57
[5]
  Phage binding ELISA CD28 scFv signal in presence of CD28: 0.227

## MDWCPRYLWTECFN [Phage-100]
[4]
  Phage binding ELISA CD28 scFv signal: 2.56
[5]
  Phage binding ELISA CD28 scFv signal in presence of CD28: 0.549

## MDWCPRFLWDECFN [Phage-83]
[6]
  Phage binding ELISA CD28 scFv signal: 2.63
[7]
  Phage binding ELISA CD28 scFv signal in presence of CD28: 0.483

## GCFTWSQRTFPFTC (cysteine pairing not given here; also: biotinylated, site not given here, biotinylated when captured on the plate) [Peptide-17]
[8]
  IC50: > 100 nM

## IDCIMVHMVKPWCF (cysteine pairing not given here; also: biotinylated, site not given here, biotinylated when captured on the plate) [Peptide-14]
[8]
  IC50: > 100 nM

B1: Peptide-6 (peptide)
peptide: VNCMRVHRTLTWCV
modifications: cysteine pairing not given here; also: biotinylated when captured on plate, site not given here
notes: biotinylated when captured on the plate
[1]
  IC50: > 100 nM

## SPCGLFQWMEICEF (cysteine pairing not given here; also: biotinylated, site not given here, biotinylated when captured on the plate) [Peptide-3]
[1]
  IC50: > 100 nM

## MDWCPMHLWNKCFN [Phage-53]
[2]
  Phage binding ELISA CD28 scFv signal: 1.04
[3]
  Phage binding ELISA CD28 scFv signal in presence of CD28: 0.122

## MDWCPIDLWHLCFY [Phage-90]
[4]
  Phage binding ELISA CD28 scFv signal: 2.59
[5]
  Phage binding ELISA CD28 scFv signal in presence of CD28: 0.488

B2: Peptide-45 (peptide)
peptide: MDWCPRFMWDECFN
modifications: cysteine pairing not given here; also: biotinylated, site not given here
notes: Synthetic biotinylated peptide loaded on streptavidin biosensors
[9]
  IC50: 370 nM

## MDWCPRDLWSLCFY [Phage-94]
[6]
  Phage binding ELISA CD28 scFv signal: 2.57
[7]
  Phage binding ELISA CD28 scFv signal in presence of CD28: 0.246

## NCQPWYWNMFAFGC (cysteine pairing not given here; also: biotinylated, site not given here, biotinylated when captured on the plate) [Peptide-15]
[8]
  IC50: > 100 nM

## NCQPWYWNMIAFGC (cysteine pairing not given here; also: biotinylated, site not given here, biotinylated when captured on the plate) [Peptide-16]
[8]
  IC50: > 100 nM

## MDWCPSYLWNECFF [Phage-62]
[6]
  Phage binding ELISA CD28 scFv signal: 2
[7]
  Phage binding ELISA CD28 scFv signal in presence of CD28: 0.133

## CFYAEYYDQVYSFC (cysteine pairing not given here; also: biotinylated, site not given here, biotinylated when captured on the plate) [Peptide-18]
[8]
  IC50: > 100 nM

## MDWCPRALWNVCFN [Phage-89]
[6]
  Phage binding ELISA CD28 scFv signal: 2.6
[7]
  Phage binding ELISA CD28 scFv signal in presence of CD28: 0.472

## MDWCPRDMWSVCFS [Phage-32]
[4]
  Phage binding ELISA CD28 scFv signal: 2.62
[5]
  Phage binding ELISA CD28 scFv signal in presence of CD28: 0.207

## MAWCPRDKWSECFS [Phage-41]
[4]
  Phage binding ELISA CD28 scFv signal: 0.853
[5]
  Phage binding ELISA CD28 scFv signal in presence of CD28: 0.147

## MDWCPIHMWADCFA [Phage-69]
[6]
  Phage binding ELISA CD28 scFv signal: 2.46
[7]
  Phage binding ELISA CD28 scFv signal in presence of CD28: 0.143

B3: Peptide-46 (peptide)
peptide: MDWCPRHMWNYCFA
modifications: cysteine pairing not given here; also: biotinylated, site not given here
notes: as for B2
[9]
  IC50: 240 nM

## MHWCPMDQWSNCFN [Phage-56]
[4]
  Phage binding ELISA CD28 scFv signal: 0.515
[5]
  Phage binding ELISA CD28 scFv signal in presence of CD28: 0.084

B4: Peptide-5 (peptide)
peptide: DNCYVIWGFEWQCR
modifications: cysteine pairing not given here; also: biotinylated when captured on plate, site not given here
notes: as for B1
[1]
  IC50: > 100 nM

## WICDKSGSIMLCRA (cysteine pairing not given here; also: biotinylated, site not given here, biotinylated when captured on the plate) [Peptide-11]
[8]
  IC50: > 100 nM

## SFCGLFLDLWICEF (cysteine pairing not given here; also: biotinylated, site not given here, biotinylated when captured on the plate) [Peptide-4]
[1]
  IC50: > 100 nM

B5: Peptide-44 (peptide)
peptide: MDWCPRDMWSVCFS
modifications: cysteine pairing not given here; also: biotinylated, site not given here
notes: as for B2
[9]
  IC50: 940 nM

B6: Peptide-8 (peptide)
peptide: CFAYLWIDSWIRVC
modifications: cysteine pairing not given here; also: biotinylated when captured on plate, site not given here
notes: as for B1
[8]
  IC50: > 100 nM
[1]
  IC50: > 100 nM

## LICKSGSILILCAQ (cysteine pairing not given here; also: biotinylated, site not given here, biotinylated when captured on the plate) [Peptide-2]
[1]
  IC50: > 100 nM

## MDWCPLYLWNECFN [Phage-24]
[6]
  Phage binding ELISA CD28 scFv signal: 2.61
[7]
  Phage binding ELISA CD28 scFv signal in presence of CD28: 0.247

## MDWCPMYLWNECFS [Phage-80]
[3]
  Phage binding ELISA CD28 scFv signal in presence of CD28: 0.411

B7: Peptide-7 (peptide)
peptide: FCTPREWSFLNFVC
modifications: cysteine pairing not given here; also: biotinylated when captured on plate, site not given here
notes: as for B1
[1]
  IC50: > 100 nM

## ITWCPSSMWNRCFI [Phage-70]
[6]
  Phage binding ELISA CD28 scFv signal: 0.379
[7]
  Phage binding ELISA CD28 scFv signal in presence of CD28: 0.11

B8: Peptide-48 (peptide)
peptide: MDWCPRYLWHVCFA
modifications: cysteine pairing not given here; also: biotinylated, site not given here
notes: as for B2
[9]
  IC50: 790 nM

## MDWCPRDLWVHCFA [Phage-29]
[4]
  Phage binding ELISA CD28 scFv signal: 2.55
[5]
  Phage binding ELISA CD28 scFv signal in presence of CD28: 0.179

## GQHCATSMWRYCMF (cysteine pairing not given here; also: biotinylated, site not given here, biotinylated when captured on the plate) [Peptide-10]
[8]
  IC50: > 100 nM

## MDWCPINLWDECFS [Phage-52]
[4]
  Phage binding ELISA CD28 scFv signal: 1.5
[5]
  Phage binding ELISA CD28 scFv signal in presence of CD28: 0.096

## DNCHYIWGFEWQCG (cysteine pairing not given here; also: biotinylated, site not given here, biotinylated when captured on the plate) [Peptide-13]
[8]
  IC50: > 100 nM
